B1: Cullin-9, residues 2234 to 2275; numbered along this chain, Q8IWT3 (parent)
chain: KRCPSCQAPIEKNEGCLHMTCAKCNHGFCWRCLKSWKPNHKD

± gives the uncertainty stated by the source.

The variants in the series derive from B1. In words: abundance fitness (aPCA) (normalised: wild type 0, dead -1); higher = more abundant; growth selection in yeast, the domain comes from the species named. Particulars: Homo sapiens.
With KRCPSCQAPIEKNEGCLHMTCAKCNHGFYWRCLKSWKPNHKD, the abundance fitness was -0.847 ± 0.21.

Regarding KRCPSCQAPIEKNEGCLHMTCAKCNHGFVWRCLKSWKPNHKD, the abundance fitness is -0.969 ± 0.11.

For KRCPSCQAPIEKNEGCLHMTCAKCNHGFGWRCLKSWKPNHKD, the abundance fitness was -0.737 ± 0.093.

In the case of KRCPSCQAPIEKNEGCLHMTCAKCNHGFAWRCLKSWKPNHKD, the abundance fitness was -0.76 ± 0.11.

Take KRCPSCQAPIEKNEGCLHMTCAKCNHGFWWRCLKSWKPNHKD: the abundance fitness was -1.17 ± 0.17.

Turning to KRCPSCQAPIEKNEGCLHMTCAKCNHGFQWRCLKSWKPNHKD, the abundance fitness was -0.563 ± 0.12.

In the case of KRCPSCQAPIEKNEGCLHMTCAKCNHGFSWRCLKSWKPNHKD, the abundance fitness is -0.749 ± 0.12.

Turning to KRCPSCQAPIEKNEGCLHMTCAKCNHGFEWRCLKSWKPNHKD, the abundance fitness is -0.432 ± 0.11.

KRCPSCQAPIEKNEGCLHMTCAKCNHGFKWRCLKSWKPNHKD: the abundance fitness is -0.632 ± 0.17.

In the case of KRCPSCQAPIEKNEGCLHMTCAKCNHGFFWRCLKSWKPNHKD, the abundance fitness is -1.53 ± 0.46.

For KRCPSCQAPIEKNEGCLHMTCAKCNHGFMWRCLKSWKPNHKD, the abundance fitness is -0.969 ± 0.22.

KRCPSCQAPIEKNEGCLHMTCAKCNHGFHWRCLKSWKPNHKD: the abundance fitness was -0.532 ± 0.16.

Consider KRCPSCQAPIEKNEGCLHMTCAKCNHGFNWRCLKSWKPNHKD, for which the abundance fitness was -0.761 ± 0.39.

Take KRCPSCQAPIEKNEGCLHMTCAKCNHGFCGRCLKSWKPNHKD: the abundance fitness came out at 0.162 ± 0.07.

As for KRCPSCQAPIEKNEGCLHMTCAKCNHGFCIRCLKSWKPNHKD, the abundance fitness was -0.258 ± 0.12.

In the case of KRCPSCQAPIEKNEGCLHMTCAKCNHGFCLRCLKSWKPNHKD, the abundance fitness was -0.156 ± 0.083.

As for KRCPSCQAPIEKNEGCLHMTCAKCNHGFCDRCLKSWKPNHKD, the abundance fitness is 0.019 ± 0.25.

Regarding KRCPSCQAPIEKNEGCLHMTCAKCNHGFCPRCLKSWKPNHKD, the abundance fitness worked out at 0.134 ± 0.11.

On to KRCPSCQAPIEKNEGCLHMTCAKCNHGFCERCLKSWKPNHKD, for which the abundance fitness is 0.016 ± 0.11.

For KRCPSCQAPIEKNEGCLHMTCAKCNHGFCVRCLKSWKPNHKD, the abundance fitness was -0.056 ± 0.085.

For KRCPSCQAPIEKNEGCLHMTCAKCNHGFCHRCLKSWKPNHKD, the abundance fitness was -0.069 ± 0.21.

Consider KRCPSCQAPIEKNEGCLHMTCAKCNHGFCKRCLKSWKPNHKD, for which the abundance fitness is -0.366 ± 0.15.

Turning to KRCPSCQAPIEKNEGCLHMTCAKCNHGFCCRCLKSWKPNHKD, the abundance fitness was -1.09 ± 0.24.

With KRCPSCQAPIEKNEGCLHMTCAKCNHGFCQRCLKSWKPNHKD, the abundance fitness was -0.05 ± 0.12.

On to KRCPSCQAPIEKNEGCLHMTCAKCNHGFCFRCLKSWKPNHKD, for which the abundance fitness is -0.162 ± 0.14.

Consider KRCPSCQAPIEKNEGCLHMTCAKCNHGFCSRCLKSWKPNHKD, for which the abundance fitness is -0.101 ± 0.11.

KRCPSCQAPIEKNEGCLHMTCAKCNHGFCMRCLKSWKPNHKD: the abundance fitness was -0.223 ± 0.12.

Take KRCPSCQAPIEKNEGCLHMTCAKCNHGFCWRCLTSWKPNHKD: the abundance fitness was -0.313 ± 0.15.

For KRCPSCQAPIEKNEGCLHMTCAKCNHGFCWRCLESWKPNHKD, the abundance fitness was determined as 0.045 ± 0.092.

For KRCPSCQAPIEKNEGCLHMTCAKCNHGFCWRCLSSWKPNHKD, the abundance fitness was -0.18 ± 0.094.

With KRCPSCQAPIEKNEGCLHMTCAKCNHGFCWRCLNSWKPNHKD, the abundance fitness is -0.579 ± 0.23.

On to KRCPSCQAPIEKNEGCLHMTCAKCNHGFCWRCLISWKPNHKD, for which the abundance fitness is -0.539 ± 0.14.

KRCPSCQAPIEKNEGCLHMTCAKCNHGFCWRCLDSWKPNHKD: the abundance fitness is -0.376 ± 0.24.

With KRCPSCQAPIEKNEGCLHMTCAKCNHGFCWRCLFSWKPNHKD, the abundance fitness was -0.378 ± 0.18.

Consider KRCPSCQAPIEKNEGCLHMTCAKCNHGFCWRCLQSWKPNHKD, for which the abundance fitness is -0.128 ± 0.18.

For the variant KRCPSCQAPIEKNEGCLHMTCAKCNHGFCWRCLHSWKPNHKD, the abundance fitness was -0.252 ± 0.15.

KRCPSCQAPIEKNEGCLHMTCAKCNHGFCWRCLMSWKPNHKD: the abundance fitness was -0.374 ± 0.13.

With KRCPSCQAPIEKNEGCLHMTCAKCNHGFCWRCLLSWKPNHKD, the abundance fitness was -0.639 ± 0.099.

Consider KRCPSCQAPIEKNEGCLHMTCAKCNHGFCWRCLCSWKPNHKD, for which the abundance fitness was -0.341 ± 0.13.

For the variant KRCPSCQAPIEKNEGCLHMTCAKCNHGFCWRCLGSWKPNHKD, the abundance fitness was -0.194 ± 0.073.

Consider KRCPSCQAPIEKNEGCLHMTCAKCNHGFCWRCLASWKPNHKD, for which the abundance fitness was -0.431 ± 0.092.

In the case of KRCPSCQAPIEKNEGCLHMTCAKCNHGFCWRCLWSWKPNHKD, the abundance fitness was -0.765 ± 0.11.

As for KRCPSCQAPIEKNEGCLHMTCAKCNHGFCWRCLPSWKPNHKD, the abundance fitness is -0.363 ± 0.12.

Take KRCPSCQAPIEKNEGCLHMTCAKCNHGFCWRCPKSWKPNHKD: the abundance fitness was -0.464 ± 0.12.

KRCPSCQAPIEKNEGCLHMTCAKCNHGFCWRCSKSWKPNHKD: the abundance fitness was -0.623 ± 0.11.

KRCPSCQAPIEKNEGCLHMTCAKCNHGFCWRCTKSWKPNHKD: the abundance fitness is -0.29 ± 0.099.

Regarding KRCPSCQAPIEKNEGCLHMTCAKCNHGFCWRCWKSWKPNHKD, the abundance fitness was -0.48 ± 0.12.

Regarding KRCPSCQAPIEKNEGCLHMTCAKCNHGFCWRCHKSWKPNHKD, the abundance fitness was -0.321 ± 0.2.

Turning to KRCPSCQAPIEKNEGCLHMTCAKCNHGFCWRCVKSWKPNHKD, the abundance fitness is -0.414 ± 0.086.

KRCPSCQAPIEKNEGCLHMTCAKCNHGFCWRCIKSWKPNHKD: the abundance fitness is -0.501 ± 0.19.

Turning to KRCPSCQAPIEKNEGCLHMTCAKCNHGFCWRCNKSWKPNHKD, the abundance fitness is -0.432 ± 0.11.

For KRCPSCQAPIEKNEGCLHMTCAKCNHGFCWRCFKSWKPNHKD, the abundance fitness was -0.451 ± 0.15.

On to KRCPSCQAPIEKNEGCLHMTCAKCNHGFCWRCMKSWKPNHKD, for which the abundance fitness is -0.096 ± 0.1.

In the case of KRCPSCQAPIEKNEGCLHMTCAKCNHGFCWRCEKSWKPNHKD, the abundance fitness was found to be 0.02 ± 0.098.

On to KRCPSCQAPIEKNEGCLHMTCAKCNHGFCWRCRKSWKPNHKD, for which the abundance fitness was -0.418 ± 0.079.

With KRCPSCQAPIEKNEGCLHMTCAKCNHGFCWRCQKSWKPNHKD, the abundance fitness is -0.125 ± 0.099.

Consider KRCPSCQAPIEKNEGCLHMTCAKCNHGFCWRCCKSWKPNHKD, for which the abundance fitness was -0.412 ± 0.13.

Turning to KRCPSCQAPIEKNEGCLHMTCAKCNHGFCWRCDKSWKPNHKD, the abundance fitness is -0.235 ± 0.13.

For KRCPSCQAPIEKNEGCLHMTCAKCNHGFCWRCYKSWKPNHKD, the abundance fitness is -0.512 ± 0.21.

Take KRCPSCQAPIEKNEGCLHMTCAKCNHGFCWRCKKSWKPNHKD: the abundance fitness is -0.184 ± 0.16.

For the origin of these results see the Human Domainome abundance scans (Beltran et al. 2025).
